# Measurements as given in the supplement of paper PMC12042874.
# ± gives the uncertainty stated by the source.
# Experiment: amyloid nucleation score (Sup35N fusion, yeast selection) (log enrichment); library NNK2; higher = more nucleation; inactive = no reads after selection
# Procedure, shortened: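 The nucleation score is the DiMSum log enrichment of output over input reads, centred on the mode score of non-aggregating sequences. Only sequences with 100 or more input reads were scored, using Illumina sequencing of input and output plasmid inserts. Psi-negative yeast expressing Sup35N fused to peptides of 20 random codons were induced 24 hours with 100 μM copper sulfate and grown 7 days at 30°C on medium lacking adenine and uracil.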
row,Substance,amyloid nucleation score
1,IIQISSYSALWFRW,0.724 ± 0.14
2,NRDKF,-1.07 ± 0.28
3,YNKGPLTGMFYMEGASVNIC,inactive
4,RVVWWVVGFS,-0.297 ± 0.56
5,FELIFELLLKKCALI,0.032 ± 0.54
6,RHAHWRVSSMDSVQFMWGE,3.18 ± 0.12
7,VVSHLGWTWGFKSMLGIRRS,-0.759 ± 0.29
8,FLNKDGNIV,-0.022 ± 0.55
9,VYNSGWQVGWAKGLWSSLYN,-0.409 ± 0.34
10,FKNFFSYLLLGVPLIAAITW,-1.67 ± 0.41
11,RILQSGLGV,0.336 ± 0.56
12,WTWFESVLRPCKGLGRAPHI,-0.172 ± 0.8
13,TNRIGFFLFCTAV,-0.049 ± 0.76
14,LYVLTNSGPHCLCVGMMHYN,inactive
15,SDICTLAEQSGASIRDRLTL,-0.284 ± 1.1
16,VSYGVWSCIRGL,-0.324 ± 1.1
17,QNRLLDFFSEPTSRS,-1.16 ± 1.1
18,GRNLMLSGVCGYKDVFLQAR,0.359 ± 0.34
19,DAWRFSTNSLHSTAYYYYFL,5.781 ± 0.043
20,NRPMEGRLKWSMTVLIVSLY,-0.187 ± 0.65
21,VMYMASSLHYTEEPSTSIMT,-0.243 ± 0.27
22,SRFLDGSLLPKTNGLSQEMV,0.122 ± 1.1
23,SDVRLVLAASEIRYGAGCRW,0.299 ± 0.65
24,KCYSYCLLAL,-0.202 ± 1.1
25,RILYMMDFSFGANSIYFYWN,4.4 ± 0.065
26,IVCSC,-0.194 ± 0.45

row,Substance,amyloid nucleation score
1,RCVGNYIWIKAFPMCLMTRC,-0.825 ± 1.1
2,FSGSTIDWL,-0.302 ± 0.3
3,GIGYRNVISSIMGFRFTGIR,0.109 ± 0.53
4,AAELLLSSGLVRQHAARRQY,0.695 ± 0.26
5,HPFMFKVCSTYFLNYLASCQ,6.78 ± 0.074
6,SFYSVTSPRWH,1.92 ± 0.17
7,QMEDSMYLNALRGVSWVTKL,inactive
8,SGLPMYCSYRYHSRLGNTYR,2.92 ± 0.064
9,INNQGFIRPDNDSCYRFWIS,inactive
10,YVCGRENILFFERLKS,-0.327 ± 0.45
11,YCNFDRIVYWPLGAAALPFR,0.065 ± 1.1
12,RQVAPMHLYIYSACNGAKNR,7.095 ± 0.062
13,NMTHEA,-0.219 ± 0.63
14,LVEVIGFVRVSEPISTHA,0.884 ± 0.33
15,ETSANDLEPNLSVHHSGFSR,0.078 ± 0.32
16,IDAELLGWFFPEDGFHFSAV,-1.32 ± 1.1
17,WLICQSIRLLAKNFLLSDRV,0.019 ± 1.1
18,IPKKSNLFLQMETMQLLFFD,2.67 ± 0.17
19,DDYRMVIVVT,-0.307 ± 0.33
20,SGGAVAYREAKWWSASNLRS,0.373 ± 0.24
21,TMQIFMKSMINSGICSTYHL,3.47 ± 0.08
22,VFVWIGLGWVTSLLSLYTNG,inactive
23,YESGVSCFFVYVMNTYHIWG,5.17 ± 0.097
24,YVDWVNRTFQWFTGDVDDPV,-0.107 ± 0.39
25,SSGCS,-0.021 ± 0.5
26,EGLLHTYCICGFLVYHYMEV,3.77 ± 0.054

row,Substance,amyloid nucleation score
1,SPCLDGDRHVGSQMLSPLSW,0.919 ± 0.33
2,YNYWMQSLGSWVEVLSSVSV,-0.365 ± 0.5
3,SSYGWSGTC,-0.833 ± 0.63
4,FDRRVDV,-0.076 ± 0.29
5,LSSIWVSSYHLSWLKSW,-0.048 ± 0.42
6,SCTPGLHQGCRCSVLLWEHR,0.681 ± 0.47
7,KTPGSHVGLWSMPGRSYPSA,0.401 ± 0.45
8,RRYHRR,1.42 ± 0.38
9,LADTGA,0.108 ± 0.42
10,KVGNGRDCIMLTVSCA,0.748 ± 0.23
11,IRMAISLFNFGFSNMFMLKE,-1.94 ± 1.1
12,QLFTMDN,-0.459 ± 0.78
13,RAIFR,-0.686 ± 0.56
14,FSSNLISPSVEISCVLIWLG,5.67 ± 0.074
15,CRLGLLF,0.767 ± 0.66
16,QIACDCNLGGKWFTDMCYFA,-0.94 ± 0.55
17,NLKKAQFRGMYVAYP,1.55 ± 0.47
18,ELLEGYSLKEMYAFPVKWAV,0.741 ± 0.6
19,VAWMFMASFRSLSMMVSISR,0.01 ± 0.37
20,AIFDTIYC,-0.541 ± 1.1
21,DRYYVFLILWTRGNTRRPTG,-1.02 ± 0.39
22,FVYNLTKTGLCYAQSVKYHN,-0.483 ± 0.39
23,AYLQGSLMEKICKISCPVDN,-0.387 ± 1.1
24,KCVRKCYDIYGLLSCCGRLA,8.844 ± 0.039
25,KPGMRNNYFLAFGFYCTCTR,1.59 ± 0.21
26,RFFYSCQASYPCSMVEMSVC,-0.901 ± 0.44

row,Substance,amyloid nucleation score
1,SEMDPPYPEISHYRYQRNHW,0.11 ± 0.54
2,FYEHRIIFFVLGFFNATTGS,inactive
3,VYYTCYDE,0.024 ± 0.4
4,LLETMAK,inactive
5,LIWGTPYKAW,0.859 ± 0.41
6,VCSGGLQDSRGYCCYPVGRM,1.31 ± 0.32
7,LVALK,1.08 ± 0.51
8,PCLRKNRYRLWLYTMVIQTQ,0.806 ± 0.32
9,YSFCWLYNYPFIFYGFAFED,5.951 ± 0.056
10,HVMNGCGLYGQGSSRYYQTV,0.957 ± 0.26
11,LQVMMYFWDEFVTKLEKVSG,-0.809 ± 1.1
12,FRSGRWRNGALSWHALATL,0.658 ± 0.52
13,VAVLKGVGDSPNLAGDSKWD,0.355 ± 0.56
14,GLYEYPHGKTIMVDWMAGRL,1.17 ± 0.28
15,NGLSRLEVTNH,0.052 ± 0.49
16,YHWWDLLLTLREPVRWRIQP,1.55 ± 0.23
17,RIRVVPKWSFISNRRNCGKL,4.25 ± 0.054
18,FWCINVSTWYNNQELI,inactive
19,QRSNGTNYHPPYKMKISHRP,inactive
20,SSFGGGCSVCRMWGGFLLDG,4.4 ± 0.059
21,KYTGNFGAVSL,0.22 ± 0.65
22,FVLTSSMVLFWDGRNDARHG,4.31 ± 0.08
23,YFFTLKV,0.497 ± 0.46
24,ASTLPYYECEYR,0.343 ± 0.18
25,VSNTEMQTVHVPAGLLPSGF,-0.27 ± 1.1
26,QVWFYIVVMLVTLTGLGQVG,1.16 ± 0.61

row,Substance,amyloid nucleation score
1,ATHKVWFESGYAHTPLVYLF,-0.588 ± 0.78
2,DAHTMIGRYTDSSLRHRTWV,1.05 ± 0.3
3,RRYAKNMFRDLGWPVPTRSD,3.09 ± 0.11
4,GKSEVGLGVGEHMQSEHGGS,-0.055 ± 0.49
5,SVCSKSGNFYGVVNMGL,-0.161 ± 0.79
6,FMTGSFEENS,-0.945 ± 1.1
7,MYLLFGSLTVYRIHYSVSNT,-1.14 ± 1.1
8,RFMFGNVKMLCVWAKRMLDI,3.16 ± 0.12
9,AFYGL,inactive
10,ELLSYRRSIKYCMGLEEPWA,-0.119 ± 0.49
11,LLPIGEVKE,-1.17 ± 0.44
12,QYALLVY,inactive
13,RRNNNFLWIDLNLMLPCYDW,7.75 ± 0.08
14,ALPKFSNNYLYEFLWFSRYL,-0.538 ± 0.76
15,VNDLWRDSHNYFCTNGGNIR,inactive
16,PYYKAGGYMVMVHLSRLFLL,-0.882 ± 0.47
17,TSKRVFSRVESGTQVLGNEG,-0.053 ± 0.5
18,LTACRVLRLLKCSQRE,4.68 ± 0.075
19,SGILLLRSLFGWPISERGHN,0.167 ± 0.56
20,QVWPLCLVAGSSFGRRGVTG,1.18 ± 0.29
21,MRCWFTFVWCVIYY,inactive
22,FCPFWDSWWGKPCRPAIDSA,0.683 ± 0.74
23,SCKWVRGVSRMPNHWN,-0.618 ± 1.1
